# Reference: US20050002904A1, “Uses of vascular endothelial growth factor and type I collagen inducible protein (VCIP)” (priority 2003, published 2005)
# B1: EGF: growth factor (protein, UniProt P01133 23-1207, looked up)
# Pro-epidermal growth factor: PQHWSCPEGTLAGNGNSTCVGPAPFLIFSHGNSIFRIDTEGTNYEQLVVDAGVSVIMDFHYNEKRIYWVDLERQLLQRVFLNGSRQERVCNIEKNVSGMAINWINEEVIWSNQQEGIITVTDMKGNNSHILLSALKYPANVAVDPVERFIFWSSEVAGSLYRADLDGVGVKALLETSEKITAVSLDVLDKRLFWIQYNREGSNSLICSCDYDGGSVHISKHPTQHNLFAMSLFGDRIFYSTWKMKTIWIANKHTGKDMVRINLHSSFVPLGELKVVHPLAQPKAEDDTWEPEQKLCKLRKGNCSSTVCGQDLQSHLCMCAEGYALSRDRKYCEDVNECAFWNHGCTLGCKNTPGSYYCTCPVGFVLLPDGKRCHQLVSCPRNVSECSHDCVLTSEGPLCFCPEGSVLERDGKTCSGCSSPDNGGCSQLCVPLSPVSWECDCFPGYDLQLDEKSCAASGPQPFLLFANSQDIRHMHFDGTDYGTLLSQQMGMVYALDHDPVENKIYFAHTALKWIERANMDGSQRERLIEEGVDVPEGLAVDWIGRRFYWTDRGKSLIGRSDLNGKRSKIITKENISQPRGIAVHPMAKRLFWTDTGINPRIESSSLQGLGRLVIASSDLIWPSGITIDFLTDKLYWCDAKQSVIEMANLDGSKRRRLTQNDVGHPFAVAVFEDYVWFSDWAMPSVMRVNKRTGKDRVRLQGSMLKPSSLVVVHPLAKPGADPCLYQNGGCEHICKKRLGTAWCSCREGFMKASDGKTCLALDGHQLLAGGEVDLKNQVTPLDILSKTRVSEDNITESQHMLVAEIMVSDQDDCAPVGCSMYARCISEGEDATCQCLKGFAGDGKLCSDIDECEMGVPVCPPASSKCINTEGGYVCRCSEGYQGDGIHCLDIDECQLGEHSCGENASCTNTEGGYTCMCAGRLSEPGLICPDSTPPPHLREDDHHYSVRNSDSECPLSHDGYCLHDGVCMYIEALDKYACNCVVGYIGERCQYRDLKWWELRHAGHGQQQKVIVVAVCVVVLVMLLLLSLWGAHYYRTQKLLSKNPKNPYEESSRDVRSRRPADTEDGMSSCPQPWFVVIKEHQDLKNGGQPVAGEDGQAADGSMQPTSWRQEPQLCGMGTEQGCWIPVSSDKGSCPQVMERSFHMPSYGTQTLEGGVEKPHSLLSANPLWQQRALDPPHQMELTQ
# modifications: Pro-epidermal growth factor
# System: VCIP
# Assay: VCIP mRNA induction by growth factors and cytokines in monolayer cells
# Type: cell-based, human
# Conditions: 6 h, northern blot
# Method: FIGS. 1A-M show expression analysis and predicted amino acid sequence of VEGF and type I collagen inducible protein (VCIP). FIG. 1A: HUVECs were embedded into three-dimensional type I collagen gel in the presence of 20% adult human serum, 1× ITS and stimulated with VEGF^165 (100 ng/ml). Total RNA was prepared at the indicated time points. Northern blots were hybridized with a fragment of the VCIP (clone-33A) cDNA probe. The transcript size (3.4 kb) is indicated on the right. The numbers at the bottom of the gel represent the fold increase in VCIP mRNA levels, as compared with untreated cells. […] Total RNA was isolated at indicated time points and subjected to VCIP northern blot analysis. […] FIG. 1E: Poly(A)^+ RNA prepared from various human tissues was subjected to VCIP northern blot analysis by hybridization with the clone-33A cDNA probe. FIG. 1F: The blot shown in FIG. 1E was re-hybridized with a GAPDH probe, showing that equal amounts of RNA were loaded across the lanes. FIG. 1G: Detection of VCIP mRNA by RT-PCR (20 cycles): monolayer endothelial cells were treated for 30 min with: (1) untreated, (2) bFGF (20 ng/ml), (3) VEGF^165 (100 ng/ml), (4) PMA (20 ng/ml), (5) bFGF (20 ng/ml)+VEGF (100 ng/ml), (6) bFGF (20 ng/ml)+PMA (20 ng/ml), (7) VEGF (100 ng/ml)+PMA (20 ng/ml) and (8) bFGF (20 ng/ml)+VEGF (100 ng/ml)+PMA (20 ng/ml). […]
molecule,measurement,setting,value
B1,induction of VCIP expression,A431 epidermoid carcinoma cells,strongly induced
same,induction of VCIP expression,HdMVECs,but not to EGF
